B1: Telethonin (Homo sapiens), O15273 (parent)
chain: MATSELSCEVSEENCERREAFWAEWKDLTLSTRPEEGCSLHEEDTQRHETYHQQGQCQVLVQRSPWLMMRMGILGRGLQEYQLPYQRVLPLPIFTPAKMGATKEEREDTPIQLQELLALETALGGQCVDRQEVAEITKQLPPVVPVSKPGALRRSLSRSMSQEAQRG
B2: Telethonin (Homo sapiens), O15273 (parent)
chain: B1 chain
partner: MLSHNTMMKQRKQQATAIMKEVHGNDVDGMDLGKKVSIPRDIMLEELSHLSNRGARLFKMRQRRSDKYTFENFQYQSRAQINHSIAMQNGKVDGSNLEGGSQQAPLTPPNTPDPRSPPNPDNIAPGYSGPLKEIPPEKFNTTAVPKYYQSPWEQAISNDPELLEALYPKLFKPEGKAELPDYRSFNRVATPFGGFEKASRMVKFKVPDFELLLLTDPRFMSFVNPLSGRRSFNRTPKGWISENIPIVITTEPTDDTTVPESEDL

Variants of: B1
Conditions: with csrp3_human CSRP3, P50461
csrp3_human CSRP3, P50461, sequence (P50461 whole entry): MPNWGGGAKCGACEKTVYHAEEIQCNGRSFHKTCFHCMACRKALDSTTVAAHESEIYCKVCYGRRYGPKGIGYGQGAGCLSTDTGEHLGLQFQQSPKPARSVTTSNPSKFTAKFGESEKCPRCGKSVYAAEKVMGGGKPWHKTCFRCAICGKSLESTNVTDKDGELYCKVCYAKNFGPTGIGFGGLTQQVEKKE

effect of a mutation on the interaction | Variant
decreasing interaction strength | E132Q
decreasing interaction strength | R87Q

Variants of: B1
Conditions: with titin_human TTN

effect of a mutation on the interaction | Variant
decreasing interaction strength | E132Q
increasing interaction strength | R153H
increasing interaction strength | T137I
decreasing interaction strength | R87Q

Variants of: B2
Conditions: with myoz2_human MYOZ2, Q9NPC6

effect of a mutation on the interaction | Variant
decreasing interaction strength | E132Q
increasing interaction strength | T137I
increasing interaction strength | R153H
decreasing interaction strength | R87Q
